# Read-outs that look alike come from different tables or passages of the source. Numbered stars: 1 amine (or outer) side, 2 acyl side, 3 side chain; on linkers, the order of the positions; unused ones are H or OH. Bridge positions count the residues as written; N and C are the ends. Side chains are listed from the residue outwards. Ends that are not written are not given here. * marks the point of attachment. C20 diacid = O=C(O)CCCCCCCCCCCCCCCCCCC(=O)*; γGlu = O=C(O)[C@H](CCC(=O)[*:2])N[*:1]
# T1: human amylin receptor (amylin 3(a) receptor: human calcitonin receptor plus RAMP-3) (human, UniProt P30988 25-474; O60896 24-148, limits assumed)
# T1 sequence (looked up) 1: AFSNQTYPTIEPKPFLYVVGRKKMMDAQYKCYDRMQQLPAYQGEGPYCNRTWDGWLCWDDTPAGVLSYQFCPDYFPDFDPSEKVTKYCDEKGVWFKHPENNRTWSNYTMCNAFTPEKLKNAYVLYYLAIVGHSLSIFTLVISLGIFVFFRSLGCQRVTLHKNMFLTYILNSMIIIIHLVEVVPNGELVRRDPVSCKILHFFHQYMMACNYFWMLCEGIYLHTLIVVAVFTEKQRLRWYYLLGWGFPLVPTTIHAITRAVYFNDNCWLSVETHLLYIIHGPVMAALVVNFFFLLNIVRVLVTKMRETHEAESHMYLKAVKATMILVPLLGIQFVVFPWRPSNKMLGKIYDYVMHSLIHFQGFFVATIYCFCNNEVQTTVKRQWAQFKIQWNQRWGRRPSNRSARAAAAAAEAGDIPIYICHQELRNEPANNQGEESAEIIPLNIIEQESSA
# T1 sequence (looked up) 2: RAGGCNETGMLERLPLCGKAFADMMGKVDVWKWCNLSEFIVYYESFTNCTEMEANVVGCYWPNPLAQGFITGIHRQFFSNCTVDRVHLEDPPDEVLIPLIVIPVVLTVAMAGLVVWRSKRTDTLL
# T2: human calcitonin receptor (human, UniProt P30988 25-474)
# T2 sequence (looked up): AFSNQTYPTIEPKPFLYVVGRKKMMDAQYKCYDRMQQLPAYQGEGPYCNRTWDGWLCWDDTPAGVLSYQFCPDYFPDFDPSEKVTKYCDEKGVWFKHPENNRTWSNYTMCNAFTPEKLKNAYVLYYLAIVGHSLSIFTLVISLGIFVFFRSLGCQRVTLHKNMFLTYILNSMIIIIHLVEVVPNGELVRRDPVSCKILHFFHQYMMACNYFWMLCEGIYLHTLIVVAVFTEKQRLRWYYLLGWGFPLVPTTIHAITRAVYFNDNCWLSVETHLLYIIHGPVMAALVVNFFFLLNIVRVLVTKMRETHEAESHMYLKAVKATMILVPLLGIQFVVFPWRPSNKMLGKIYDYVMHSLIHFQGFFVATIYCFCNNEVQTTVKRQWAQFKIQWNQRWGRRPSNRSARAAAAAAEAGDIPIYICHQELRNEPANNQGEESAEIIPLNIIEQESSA
# T3: human calcitonin receptor (human, UniProt P30988 25-474)
# T3 sequence (looked up): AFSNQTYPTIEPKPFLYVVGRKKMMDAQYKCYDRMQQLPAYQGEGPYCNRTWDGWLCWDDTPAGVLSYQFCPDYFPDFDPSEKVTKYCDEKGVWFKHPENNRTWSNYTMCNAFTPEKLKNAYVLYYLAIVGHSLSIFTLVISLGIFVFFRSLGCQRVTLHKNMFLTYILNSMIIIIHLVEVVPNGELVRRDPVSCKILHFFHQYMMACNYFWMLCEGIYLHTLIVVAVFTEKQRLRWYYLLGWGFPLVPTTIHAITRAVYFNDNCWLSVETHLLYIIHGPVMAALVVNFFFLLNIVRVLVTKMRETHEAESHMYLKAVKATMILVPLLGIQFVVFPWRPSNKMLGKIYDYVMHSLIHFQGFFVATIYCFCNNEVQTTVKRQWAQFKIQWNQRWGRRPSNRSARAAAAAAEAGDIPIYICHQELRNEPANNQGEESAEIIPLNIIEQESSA
# T4: human amylin receptor (amylin 3(a) receptor: human calcitonin receptor with RAMP-3) (human, UniProt P30988 25-474; O60896 24-148)
# T4 sequence (looked up) 1: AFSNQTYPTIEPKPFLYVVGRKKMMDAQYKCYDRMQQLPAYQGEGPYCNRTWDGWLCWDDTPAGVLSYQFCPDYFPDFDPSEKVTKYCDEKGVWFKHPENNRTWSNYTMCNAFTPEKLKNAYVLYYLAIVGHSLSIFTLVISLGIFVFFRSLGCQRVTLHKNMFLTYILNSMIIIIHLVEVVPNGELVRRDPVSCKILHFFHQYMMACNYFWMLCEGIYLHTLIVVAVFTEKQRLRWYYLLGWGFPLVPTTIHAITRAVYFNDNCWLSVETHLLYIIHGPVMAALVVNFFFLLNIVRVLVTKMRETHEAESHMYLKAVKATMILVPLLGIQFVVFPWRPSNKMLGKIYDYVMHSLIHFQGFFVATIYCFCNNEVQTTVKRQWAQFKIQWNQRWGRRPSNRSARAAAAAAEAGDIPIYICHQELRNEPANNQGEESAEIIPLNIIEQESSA
# T4 sequence (looked up) 2: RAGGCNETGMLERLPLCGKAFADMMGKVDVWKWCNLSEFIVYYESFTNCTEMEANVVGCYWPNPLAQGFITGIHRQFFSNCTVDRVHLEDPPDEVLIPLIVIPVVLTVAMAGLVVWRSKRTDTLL
# How the values were obtained:
# Experiment in all cases: cell-based or functional assay
# [1] = target: T1, human amylin receptor (amylin 3(a) …)
# [2] = target: T2, human calcitonin receptor
# [3] = target: T3, human calcitonin receptor; remark: listed apart in the source
# [4] = target: T4, human amylin receptor (amylin 3(a) …)
Binder,hAmylin-R funct. EC50 [1] [pM],Ratio hCT/hAmylin funct. (hCTR EC50 against hAmylin-R EC50) [2],hCTR funct. EC50 [2] [pM],Ratio hCT/hAmylin funct. [3],hCTR funct. EC50 [3] [pM],hAmylin-R funct. EC50 [4] [pM]
"KCNTATCATQRLANFLRHSSPNFGAIPSSTNVGRNTY (C20 diacid-gGlu on the alpha amino group of the N-terminal residue; Cys2-Cys7 disulfide and C-terminal amide as in human amylin, also called compound 39) [N^α1-[(4S)-4-carboxy-4-(19-carboxynonadecanoylamino)butanoyl]-[Arg17,Pro21,Pro27,Arg34]-h-amylin]",217,11.6,2520,,,
"KCNTATCATQRLAEFLRHSSPNFGAIPSSTNVGSNTY (C20 diacid-gGlu-2xOEG on the alpha amino group of the N-terminal residue; disulfide bridge Cys2-Cys7; C-terminal amide, also called compound 19)",,,,17.4,5320,307
"KCNTATCATQRLANFLRHSSPNFGAIPSSTNVGHNTY (C20 diacid-gGlu on the alpha amino group of the N-terminal residue; Cys2-Cys7 disulfide and C-terminal amide as in human amylin, also called compound 40) [N^α1-[(4S)-4-carboxy-4-(19-carboxynonadecanoylamino)butanoyl]-[Arg17,Pro21,Pro27,His34]-h-amylin]",164,16.4,2680,,,
"KCNTATCATQRLANFLRHSSPNFGAIPSSTNVGSETY (C20 diacid-gGlu on the alpha amino group of the N-terminal residue; Cys2-Cys7 disulfide and C-terminal amide as in human amylin, also called compound 23) [N^α1-[(4S)-4-carboxy-4-(19-carboxynonadecanoylamino)butanoyl]-[Arg17,Pro21,Pro27,Glu35]-h-amylin]",340,8.9,3020,,,
"{C20 diacid-γGlu}-KCNTATCATQRLAEFLRHSSPNFGAIPSSTNVGKNTY-NH2 (disulfide 2-7; SMILES CC[C@H](C)[C@H](NC(=O)[C@H](C)NC(=O)CNC(=O)[C@H](Cc1ccccc1)NC(=O)[C@H](CC(N)=O)NC(=O)[C@@H]1CCCN1C(=O)[C@H](CO)NC(=O)[C@H](CO)NC(=O)[C@H](Cc1c[nH]cn1)NC(=O)[C@H](CCCNC(=N)N)NC(=O)[C@H](CC(C)C)NC(=O)[C@H](Cc1ccccc1)NC(=O)[C@H](CCC(=O)O)NC(=O)[C@H](C)NC(=O)[C@H](CC(C)C)NC(=O)[C@H](CCCNC(=N)N)NC(=O)[C@H](CCC(N)=O)NC(=O)[C@@H](NC(=O)[C@H](C)NC(=O)[C@@H]1CSSC[C@H](NC(=O)[C@H](CCCCN)NC(=O)CC[C@H](NC(=O)CCCCCCCCCCCCCCCCCCC(=O)O)C(=O)O)C(=O)N[C@@H](CC(N)=O)C(=O)N[C@@H]([C@@H](C)O)C(=O)N[C@@H](C)C(=O)N[C@@H]([C@@H](C)O)C(=O)N1)[C@@H](C)O)C(=O)N1CCC[C@H]1C(=O)N[C@@H](CO)C(=O)N[C@@H](CO)C(=O)N[C@H](C(=O)N[C@@H](CC(N)=O)C(=O)N[C@H](C(=O)NCC(=O)N[C@@H](CCCCN)C(=O)N[C@@H](CC(N)=O)C(=O)N[C@H](C(=O)N[C@@H](Cc1ccc(O)cc1)C(N)=O)[C@@H](C)O)C(C)C)[C@@H](C)O, also called compound 36)",,,,6.8,1280,189

# More lines, now with the values ahead:
hAmylin-R funct. EC50 [1] [pM],Ratio hCT/hAmylin funct. (hCTR EC50 against hAmylin-R EC50) [2],hCTR funct. EC50 [2] [pM],Ratio hCT/hAmylin funct. [3],hCTR funct. EC50 [3] [pM],hAmylin-R funct. EC50 [4] [pM],Binder
,,,8.9,3430,386,"{C20 diacid-γGlu-γGlu}-KCNTATCATQRLAEFLRHSSPNFGAIPSSTNVGSNTY-NH2 (disulfide 2-7; SMILES CC[C@H](C)[C@H](NC(=O)[C@H](C)NC(=O)CNC(=O)[C@H](Cc1ccccc1)NC(=O)[C@H](CC(N)=O)NC(=O)[C@@H]1CCCN1C(=O)[C@H](CO)NC(=O)[C@H](CO)NC(=O)[C@H](Cc1c[nH]cn1)NC(=O)[C@H](CCCNC(=N)N)NC(=O)[C@H](CC(C)C)NC(=O)[C@H](Cc1ccccc1)NC(=O)[C@H](CCC(=O)O)NC(=O)[C@H](C)NC(=O)[C@H](CC(C)C)NC(=O)[C@H](CCCNC(=N)N)NC(=O)[C@H](CCC(N)=O)NC(=O)[C@@H](NC(=O)[C@H](C)NC(=O)[C@@H]1CSSC[C@H](NC(=O)[C@H](CCCCN)NC(=O)CC[C@H](NC(=O)CC[C@H](NC(=O)CCCCCCCCCCCCCCCCCCC(=O)O)C(=O)O)C(=O)O)C(=O)N[C@@H](CC(N)=O)C(=O)N[C@@H]([C@@H](C)O)C(=O)N[C@@H](C)C(=O)N[C@@H]([C@@H](C)O)C(=O)N1)[C@@H](C)O)C(=O)N1CCC[C@H]1C(=O)N[C@@H](CO)C(=O)N[C@@H](CO)C(=O)N[C@H](C(=O)N[C@@H](CC(N)=O)C(=O)N[C@H](C(=O)NCC(=O)N[C@@H](CO)C(=O)N[C@@H](CC(N)=O)C(=O)N[C@H](C(=O)N[C@@H](Cc1ccc(O)cc1)C(N)=O)[C@@H](C)O)C(C)C)[C@@H](C)O, also called compound 15)"
,,,2.2,470,213,"K([γGlu-γGlu-C20 diacid])CNTATCATQRLAEFLRHSSPNFGAIPSSTNVGSNTP-NH2 (disulfide 2-7; N-terminus assumed; SMILES CC[C@H](C)[C@H](NC(=O)[C@H](C)NC(=O)CNC(=O)[C@H](Cc1ccccc1)NC(=O)[C@H](CC(N)=O)NC(=O)[C@@H]1CCCN1C(=O)[C@H](CO)NC(=O)[C@H](CO)NC(=O)[C@H](Cc1c[nH]cn1)NC(=O)[C@H](CCCNC(=N)N)NC(=O)[C@H](CC(C)C)NC(=O)[C@H](Cc1ccccc1)NC(=O)[C@H](CCC(=O)O)NC(=O)[C@H](C)NC(=O)[C@H](CC(C)C)NC(=O)[C@H](CCCNC(=N)N)NC(=O)[C@H](CCC(N)=O)NC(=O)[C@@H](NC(=O)[C@H](C)NC(=O)[C@@H]1CSSC[C@H](NC(=O)[C@@H](N)CCCCNC(=O)CC[C@H](NC(=O)CC[C@H](NC(=O)CCCCCCCCCCCCCCCCCCC(=O)O)C(=O)O)C(=O)O)C(=O)N[C@@H](CC(N)=O)C(=O)N[C@@H]([C@@H](C)O)C(=O)N[C@@H](C)C(=O)N[C@@H]([C@@H](C)O)C(=O)N1)[C@@H](C)O)C(=O)N1CCC[C@H]1C(=O)N[C@@H](CO)C(=O)N[C@@H](CO)C(=O)N[C@H](C(=O)N[C@@H](CC(N)=O)C(=O)N[C@H](C(=O)NCC(=O)N[C@@H](CO)C(=O)N[C@@H](CC(N)=O)C(=O)N[C@H](C(=O)N1CCC[C@H]1C(N)=O)[C@@H](C)O)C(C)C)[C@@H](C)O, also called compound 13)"
,,,1.8,185,101,"K([γGlu-C20 diacid])CNTATCATQRLAEFLRHSSPNFGAIPSSTNVGSNTP-NH2 (disulfide 2-7; N-terminus assumed; SMILES CC[C@H](C)[C@H](NC(=O)[C@H](C)NC(=O)CNC(=O)[C@H](Cc1ccccc1)NC(=O)[C@H](CC(N)=O)NC(=O)[C@@H]1CCCN1C(=O)[C@H](CO)NC(=O)[C@H](CO)NC(=O)[C@H](Cc1c[nH]cn1)NC(=O)[C@H](CCCNC(=N)N)NC(=O)[C@H](CC(C)C)NC(=O)[C@H](Cc1ccccc1)NC(=O)[C@H](CCC(=O)O)NC(=O)[C@H](C)NC(=O)[C@H](CC(C)C)NC(=O)[C@H](CCCNC(=N)N)NC(=O)[C@H](CCC(N)=O)NC(=O)[C@@H](NC(=O)[C@H](C)NC(=O)[C@@H]1CSSC[C@H](NC(=O)[C@@H](N)CCCCNC(=O)CC[C@H](NC(=O)CCCCCCCCCCCCCCCCCCC(=O)O)C(=O)O)C(=O)N[C@@H](CC(N)=O)C(=O)N[C@@H]([C@@H](C)O)C(=O)N[C@@H](C)C(=O)N[C@@H]([C@@H](C)O)C(=O)N1)[C@@H](C)O)C(=O)N1CCC[C@H]1C(=O)N[C@@H](CO)C(=O)N[C@@H](CO)C(=O)N[C@H](C(=O)N[C@@H](CC(N)=O)C(=O)N[C@H](C(=O)NCC(=O)N[C@@H](CO)C(=O)N[C@@H](CC(N)=O)C(=O)N[C@H](C(=O)N1CCC[C@H]1C(N)=O)[C@@H](C)O)C(C)C)[C@@H](C)O, also called compound 12)"

# Reference: patent US20140087995A1 (published 2014)
